According to US20060040319A1, “Multiple sensor-containing active modified polypeptides, preparation and uses thereof” (priority 2000, published 2006):
“Also recorded” adds a separate entry of the source.

How the values were obtained:
[1] = molecular target: T1, full length recombinant c-Abl (Mus musculus, UniProt P00520); assay: Kinase assay: phosphorylation of Rh-(Crk-II)-Fl by full length c-Abl (FRET, western blot, native PAGE); type: biochemical
T1 construct: full length recombinant (Baculovirus/SF9) mouse c-Abl; made in house; host or cells: Baculovirus/SF9
Method: (§1) Purified Rh-(Crk-II)-Fl prepared as described in Example I was treated with either full length recombinant (Baculovirus/SF9) mouse c-Abl or a GST fusion of mouse c-Abl containing only the SH2 and kinase domains (expressed in E. coli BL21 essentially as described (19)). In a typical experiment, the appropriate c-Abl construct was incubated in reaction buffer (2 mM DTT, 0.2 mg/ml BSA, 10 mM Mg^2+, 50 mM Tris, pH 7.4, either with or without ATP (500 μM)) for 5 min at 30° C. before addition of Rh-(Crk-II)-Fl (final concentration=0.25 μM). In order to ensure that equal amounts of active c-Abl enzyme were added to each reaction, preliminary titration experiments were carried out using an optimized peptide substrate for c-Abl (EAIYAAPFAKKK (SEQ ID No:2) (20)). For peptide inhibition studies, Rh-(Crk-II)-Fl was pre-incubated for 30 min with a high affinity ligand for the N-SH3 domain of Crk, PPPALPPKRRR-NH2 (SEQ ID No:7) (21), such that the final concentration of ligand in the kinase assay was 12 μM. In all cases, aliquots of the reaction mixtures were removed at ˜1 min and 60 min, quenched with EDTA (final conc.=40 mM), and then analyzed by native-PAGE and/or Western blotting and fluorescence spectroscopy.
Western Blotting. Standard procedures were used to probe for tyrosine phosphorylation using a mouse monoclonal anti-phosphotyrosine primary antibody (PY20, Santa Cruz Biotechnology) and a HPO-conjugated goat anti-mouse polyclonal secondary antibody (Amersham Pharmacia).
Fluorescence Spectroscopy. Experiments were conducted at 18° C. in a stirred 0.5 cm-pathlength cell using a SPEX FL3-11C fluorimeter. Samples from the reactions (50 μl) were diluted into 2 mM DTT, 0.4 mg/mL BSA, 140 mM NaCl, 50 mM Tris, pH 7.4 buffer (450 μl) for analysis. Excitation was at 490 nm with a 2.5 nm slit and the fluorescence emission was monitored at 520 nm and 580 nm through a 4 nm slit. Purified Rh-(Crk-II)-Fl was assayed for its ability to biosense Crk-II phosphorylation by the c-Abl protein tyrosine kinase. As indicated previously, phosphorylation by c-Abl leads to an intramolecular association between a phosphotyrosine motif and the Crk-II SH2 domain, which could potentially be reported by the dual-labeled Crk-II derivative (FIG. 1). Rh-(Crk-II)-Fl was treated with full length recombinant c-Abl and aliquots of the reaction mixture were analyzed by fluorescence spectroscopy and western blotting at ˜1 min and 60 min time-points. […] In contrast, when ATP was included in the reaction mixture, a phosphorylation-dependent increase in the emission intensity ratio (a decrease in FRET) was consistently observed.

[2] = molecular target: T2, GST fusion of mouse c-Abl containing only the SH2 and kinase domains (Mus musculus, UniProt P00520); assay: Kinase assay with truncated c-Abl containing only the SH2 and kinase domains; type: biochemical; conditions: truncated c-Abl (SH2 and kinase domains only), over 60 min
T2 construct: a GST fusion of mouse c-Abl containing only the SH2 and kinase domains; made in house; host or cells: E. coli BL21
T2 sequence (P00520 127-493): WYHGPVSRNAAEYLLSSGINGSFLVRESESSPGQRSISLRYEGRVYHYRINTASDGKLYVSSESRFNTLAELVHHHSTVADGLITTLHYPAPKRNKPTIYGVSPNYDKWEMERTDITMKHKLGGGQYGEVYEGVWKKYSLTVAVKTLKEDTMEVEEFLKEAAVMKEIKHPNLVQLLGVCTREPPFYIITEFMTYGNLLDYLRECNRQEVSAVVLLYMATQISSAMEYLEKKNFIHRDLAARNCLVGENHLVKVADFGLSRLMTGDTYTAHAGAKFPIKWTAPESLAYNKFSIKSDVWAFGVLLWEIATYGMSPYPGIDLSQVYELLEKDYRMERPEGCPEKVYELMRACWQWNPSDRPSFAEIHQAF
Method: as §1, with “For peptide inhibition studies, Rh-(Crk-II)-Fl was pre-incubated for 30 min with a high affinity ligand for the N-SH3 domain of Crk, PPPALPPKRRR-NH2 (SEQ ID No:7) (21), such that the final concentration of ligand in the kinase assay was 12 μM.” left out, “spectroscopy. […]” for “spectroscopy.”
Fluorescence Spectroscopy. […] Excitation was at 490 nm with a 2.5 nm slit and the fluorescence emission was monitored at 520 nm and 580 nm through a 4 nm slit. […] Rh-(Crk-II)-Fl was treated with full length recombinant c-Abl and aliquots of the reaction mixture were analyzed by fluorescence spectroscopy and western blotting at ˜1 min and 60 min time-points. […]

T1 sequence (P00520 whole entry): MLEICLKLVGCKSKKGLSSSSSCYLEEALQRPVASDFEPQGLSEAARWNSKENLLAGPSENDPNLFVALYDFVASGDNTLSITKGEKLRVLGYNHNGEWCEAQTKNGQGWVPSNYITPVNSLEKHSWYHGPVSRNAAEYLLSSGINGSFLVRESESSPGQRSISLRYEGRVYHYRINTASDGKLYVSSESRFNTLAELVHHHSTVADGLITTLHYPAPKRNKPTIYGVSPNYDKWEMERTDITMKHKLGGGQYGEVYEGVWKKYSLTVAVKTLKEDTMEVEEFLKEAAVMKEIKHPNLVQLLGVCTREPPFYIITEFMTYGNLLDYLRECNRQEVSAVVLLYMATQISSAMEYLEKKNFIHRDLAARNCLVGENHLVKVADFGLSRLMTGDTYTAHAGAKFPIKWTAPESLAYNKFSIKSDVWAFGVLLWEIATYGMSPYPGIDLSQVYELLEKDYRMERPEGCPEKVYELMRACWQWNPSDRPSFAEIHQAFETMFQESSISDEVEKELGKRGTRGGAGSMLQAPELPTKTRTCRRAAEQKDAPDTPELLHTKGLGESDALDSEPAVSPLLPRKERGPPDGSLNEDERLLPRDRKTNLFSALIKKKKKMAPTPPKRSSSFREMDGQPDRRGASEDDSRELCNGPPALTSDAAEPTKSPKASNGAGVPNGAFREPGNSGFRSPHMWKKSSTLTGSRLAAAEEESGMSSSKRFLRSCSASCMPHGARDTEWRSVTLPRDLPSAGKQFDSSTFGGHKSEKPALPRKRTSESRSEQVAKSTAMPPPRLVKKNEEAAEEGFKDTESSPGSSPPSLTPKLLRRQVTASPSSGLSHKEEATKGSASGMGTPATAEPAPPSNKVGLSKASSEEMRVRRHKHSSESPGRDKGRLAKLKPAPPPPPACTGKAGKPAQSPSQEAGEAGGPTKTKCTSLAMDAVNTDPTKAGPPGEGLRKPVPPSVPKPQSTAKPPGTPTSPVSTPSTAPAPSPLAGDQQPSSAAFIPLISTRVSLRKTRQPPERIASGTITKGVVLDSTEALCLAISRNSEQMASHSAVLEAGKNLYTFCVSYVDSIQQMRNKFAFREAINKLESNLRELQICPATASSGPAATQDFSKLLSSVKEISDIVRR

B1: Rh-(Crk-II)-Fl: semi-synthetic mouse Crk-II adapter protein with tetramethylrhodamine and fluorescein FRET pair at the N- and C-termini (protein)
chain: KRGCAGNFDSEERSSWYWGRLSRQEAVALLQGQRHGVFLVRDSSTSPGDYVLSVSENSRVSHYIINSSGPRPPVPPSPAQPPPGVSPSRLRIGDQEFDSLPALLEFYKIHYLDTTTLIEPVARSRQGSGVILRQEEAEYVRALFDFNGNDEEDLPFKKGDILRIRDKPEEQWWNAEDSEGKRGMIPVPYVEKYRPASASVSALIGGNQEGSHPQPLGGPEPGPYAQPSVNTPLPNLQNGPIYARVIQKRVPNAYDKTALALEVGELVKVTKINVSGQWEGECNGKRGHFPFTHVRLLDQQNPDEDFSGCGXGLEVLFQ
modifications: not fully specified; tetramethylrhodamine N-terminal, fluorescein C-terminal; Protein Kinase Target
notes: semi-synthetic mouse Crk-II adapter protein with tetramethylrhodamine and fluorescein FRET pair at the N- and C-termini
change in FRET ([1]; absence of ATP): essentially no change in FRET
phosphorylation detected with anti-phosphotyrosine monoclonal antibody (western) ([1]; absence of ATP): no Rh-(Crk-II)-Fl phosphorylation could be detected
extent of phosphorylation by native PAGE mobility ([1]; with ATP, after 1 h): completely phosphorylated
decrease in FRET (increase in Fl:Rh emission intensity ratio) ([1]; with ATP, after 60 min): ~3%
phosphorylation by fluorescence and western blotting analysis [2]: did not lead to any detectable phosphorylation; also recorded: complete lack of phosphorylation
